In PMC6239910 (Molecular cell, 2018):
Residue numbers refer to the chain shown, from its start. In names and notes the source's numbering stands. Where two headings read alike, the source gives them in different places. One block for each binder: values may come before it.

How the values were obtained:
Ube2D3(C85S) [1] = biological target: T1, Ube2D3(C85S) (human, UniProt P61077 1-147, C85S); assay: NMR titration
Ube2D3(C85S) [2] = biological target: T1, Ube2D3(C85S); assay: NMR titration; remark: listed apart in the source
Ube2D1 = Ube2D1 (human, UniProt P51668 1-147); assay: ITC
Ube2D1, sequence (P51668 whole entry): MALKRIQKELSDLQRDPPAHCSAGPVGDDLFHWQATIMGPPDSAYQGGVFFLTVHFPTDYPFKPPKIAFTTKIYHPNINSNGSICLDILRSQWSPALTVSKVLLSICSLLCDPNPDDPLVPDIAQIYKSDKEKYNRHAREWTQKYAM

T1 sequence (P61077 whole entry C85S): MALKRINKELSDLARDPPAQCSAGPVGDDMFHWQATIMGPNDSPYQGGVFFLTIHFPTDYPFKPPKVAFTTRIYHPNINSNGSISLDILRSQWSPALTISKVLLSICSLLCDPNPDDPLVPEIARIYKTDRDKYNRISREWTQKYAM

B1: UHRF2-UBL (residues 1–81) (domain or fragment, UniProt Q96PU4 1-81, looked up)
chain: MWIQVRTIDGSKTCTIEDVSRKATIEELRERVWALFDVRPECQRLFYRGKQLENGYTLFDYDVGLNDIIQLLVRPDPDHLP
Kd (Ube2D3(C85S) [1]): 215 µM

B2: UHRF1-UBL (residues 1–76) (domain or fragment, human, UniProt Q96T88 1-76, looked up)
chain: MWIQVRTMDGRQTHTVDSLSRLTKVEELRRKIQELFHVEPGLQRLFYRGKQMEDGHTLFDYEVRLNDTIQLLVRQS
Kd (Ube2D3(C85S) [2]): 15 µM

B3: UHRF1-UBL K50R (domain or fragment, human, UniProt Q96T88 1-76, looked up)
chain: B2 chain with K50R
binding result (Ube2D1): binds

Next, values leading:

binding result (Ube2D1): binds
B4: UHRF1-UBL F59V (domain or fragment, human, UniProt Q96T88 1-76, looked up)
chain: B2 chain with F59V

binding result (Ube2D1): binds
B5: UHRF1-UBL W2V (domain or fragment, human, UniProt Q96T88 1-76, looked up)
chain: B2 chain with W2V

binding result (Ube2D1): binds
B6: UHRF1-UBL L65A (domain or fragment, human, UniProt Q96T88 1-76, looked up)
chain: B2 chain with L65A
